The values below come from patent US20220348674A1 (APOLLOMICS, published 2022).

First the molecules themselves.
B1: 6C2 rabbit-human chimeric anti-CD40 antibody (antibody, V domains shown)
VH: QSVEESGGRLVTPGTPLTLTCTASGFSLSTYYMIWVRQAPGKGLDYIGIISSNGNAYYATWAKGRFTISKTSTTVDLKMTSPTTEDTATYFCARAASIANSYYFNVWGPGTLVTVSS
VL: AVLTQTPSPVSAAVGGTVSISCQSSQSVRDNNWLSWFQQKPGHPPKLLIYGASNLESGVPSRFSGSGSGTEFTLTISDVQCDDAATYYCQGGFSTYSDNSFGGGTEVVVK
notes: tested as cell culture supernatant
B2: 7A6 rabbit-human chimeric anti-CD40 antibody (antibody, V domains shown)
VH: QSVEESGGRLVTPGTPLTLACTVSGIDLSTWTMSWVRQAPGKGLEWIGIINSDSNTYYASWAKGRFTISKASTTVDLKMTSLTTEDTATYFCARGVGGYSSGPDYLDIWGPGTLVTVSS
VL: DIVMTQTPASVEAAVGGTVTIKCQASQSIYRSLAWYQQKPGQPPKLLMYHASDLASGVPSRFKGSGSGTEYTLTISDLECADAATYYCQSYYYSGINTYGNAFGGGTEVVVK
notes: as for B1
B3: 7H11 rabbit-human chimeric anti-CD40 antibody (antibody, V domains shown)
VH: QSVEESGGRLVTPGTPLTLTCTVSGIDFSKYWMAWVRQAPGEGLEYIGILSTTGSTYYASWAKGRFTISKTSTTVDLKITSLTTEDTATYFCARGNYIGNGYTWDIWGPGTLVTVSS
VL: DPVLTQTPSSASEPVGGTVTIKCQASQSIGSYLAWYQQKPGQPPKLLIYSPSTLASGVSSRFKGSRSGTEFTLTISDLECADAATYYCQSTAVGITFGGGTEVVVK
notes: as for B1
B4: 6G8 rabbit-human chimeric anti-CD40 antibody (antibody, V domains shown)
VH: QSVEESGGRLVTPGTPLTLTCTASGFSLSTYYMTWVRQAPGKGLEAIGYINTGGSTYYASRAKGRFTISKTSTTVDLKMTSPTTEDTATYFCARADASEHNYNGLNIWGPGTLVTVSS
VL: DIVMTQTPASVSEPVGGTVTIKCQASESISSNLAWYQQKPGQPPKFLIYRASTLASGVPSRFKGSGFGTQFTLTISDLECADAATYYCQSNYGSISSSYGNAFGGGTEVVVK
notes: as for B1
B5: 1D3 rabbit-human chimeric anti-CD40 antibody (antibody, V domains shown)
VH: QSLEESGGRLVTPGTPLTLTCTASGFSLSNYHMCWVRQAPGKGLEWIGYNSYGGSAYYASWAKGRFTISKTSTTVDLKITRPTTEDTATYFCARAYLDYNGDMGFALWGPGTLVTVSS
VL: EVVMTQTPSSVSAAVGGTVTFKCQASQSISSYLSWYQQKPGQPPKLLIYRASTLESGVPSRFKGSGSGTQFTLTISDLECADAATYYCQTNYYDSGNTYGTFGGGTEVVVK
notes: as for B1
B6: 5F9 rabbit-human chimeric anti-CD40 antibody (antibody, V domains shown)
VH: QSVEESGGRLVTPGTPLTLTCTASGFSLIGYVMGWFRQAPGKGLEYIGWISFGGDPYYASWVKGRFTISKTSTTVDLKMTSLTTEDTATYFCARSTYGDIWGPGTLVTVSS
VL: DIVMTQTPASVEAAVGGTVTIKCQASQSISSRLAWYQLKPGQPPKLLIYSASTLASGVPSRFKGSGSGTEFTLTISDLECADAATYYCQNHGYATSESYTNTFGGGTEVVVK
notes: tested as cell culture supernatant in the ELISA
B7: 6E1 rabbit-human chimeric anti-CD40 antibody (antibody, V domains shown)
VH: QSVEESGGRLVTPGTPLTLTCTVSGFSLSSYAMTWVRQAPGKGLEWLGIIDTIGSTYYASWAKGRFTISKTSTTVDLKITSPTTEDTATYFCVRDYIGSTSGKKLWGRGTLVTVSS
VL: AVLTQTPSSVEAAVGGTVSISCQSSKSVYYKNWLAWYQQKPGQPPKLLIYGASTLASGVPSRFKGSGSGAQFTLTISDVQCDDAATYYCAGGYSSDSDTGFGGGTEVVVK
notes: as for B1
B8: 3B12 rabbit-human chimeric anti-CD40 antibody (antibody, V domains shown)
VH: QSLEESGGRLVTPGTPLTLTCTVSGIDLSSYAMGWVRQAPGKGLEYIGVIASNSGISYYATWAEGRFTISKASTTVDLKITSPTTEDTATYFCVRGYIGDGALWGPGTLVTVSS
VL: AVLTQTPSSVSAAVGGTVTINCQSSKTVYYNNWLAWYQQKPGQPPKLLIYRASTLASGVPSRFKGSGSGTQFTLTISDVQCDDATTYYCAGGFSSDSDTTFGGGTEVVVK
notes: as for B1
B9: 6H9 rabbit-human chimeric anti-CD40 antibody (antibody, V domains shown)
VH: QSLEESGGRLVTPGTPLTLTCTVSGIDLSSYAMGWVRQAPGKGLEYIGVIASNSGISYYATWAEGRFTISKASTTVDLKITSPTTEDTATYFCVRGYIGDGALWGPGTLVTVSS
VL: AVLTQTPSSVSAAVGGTVTINCQSSKTVYYNNWLAWYQQKPGQPPKLLIYRASTLASGVPSRFKGSGSGTQFTLTISDVQCDDATTYYCAGGFSSDSDTTFGGGTEVVVK
notes: as for B1
B10: 2B8 rabbit-human chimeric anti-CD40 antibody (antibody, V domains shown)
VH: QSLEESGGRLVTPGTPLTLTCTVSGIDLSSYAMGWVRQAPGKGLEYIGVIASNSGISYYATWAEGRFTISKASTTVDLKITSPTTEDTATYFCVRGYIGDGALWGPGTLVTVSS
VL: AVLTQTPSSVSAAVGGTVNIGCQSSKSVYYNNWLAWYQQKPGQPPKLLIYRASTLASGVPSRFKGSGSGTQFTLTISDVQCADATTYYCAGGYSSDSDTTFGGGTEVVVK
notes: as for B1
B11: 194 rabbit-human chimeric anti-CD40 antibody (antibody, V domains shown)
VH: QSVEESGGRLVTPGTPLTLTCTVSGFSLSSYAMSWVRQAPGKGLEYIGVMNTGGSAHYATWAKGRFTISKTSTTVDLKITSPTTADTATYFCARGYIGSPNLWGPGTLVTVSS
VL: AVLTQTPSPVSAAVGGTVSISCQSSKSVYYNNYLSWFQQKPGQPPKQLIYLASTLASGVPSRFKGSGSGTEFTLTISDVQCADAATYYCAGGYTDSDDAFGGGTEVVVK
notes: as for B1
B12: 192 rabbit-human chimeric anti-CD40 antibody (antibody, V domains shown)
VH: QSVEESGGRLVTPGTPLTLTCTVSGFSLSSYAMNWVRQAPGKGLEYTGMIATGGKTFYAGWAEGRFTISKTSTTVDLHIASLTTEDTATYYCARGYVGDIYFGFWGPGTLVTVSS
VL: AVLTQTPSPVSAGVGGTVTISCQSSKSVYYNTHLSWFQQKPGQPPKLLIYRASTLASGVPSRFKGSGSGTQFTLTISDVQCDDAATYYCAGGYANDVDNGFGGGTEVVVK
notes: as for B1
B13: 195 rabbit-human chimeric anti-CD40 antibody (antibody, V domains shown)
VH: QSVEESGGRLVTPGTPLTLTCTVSGFSLSSYAMNWVRQAPGKGLEYIGMIATGGKTFYAGWAEGRFTISKTSTTVDLHIASLTTEDTATYYCARGYVGDIYFGFWGPGTLVTVSS
VL: AVLTQTPSPVSAGVGGTVTISCQSSKSVYYNTHLPWFQQKPGQPPKLLIYRASTLASGVPSRFKGSGSGTQFTLTISDVQCDDAATYYCAGGYANDVDNGFGGGTEVVVK
notes: as for B1
B14: 7D2 rabbit-human chimeric anti-CD40 antibody (antibody, V domains shown)
VH: QSVEESGGRLVTPGTPLTLTCTVSGFSLNNYYMGWVRQAPGKGLEYIGWITSGRIAAYANWAKGRFTISKTSTTVDLKITSPTIGDTATHFCATTTTSDAYFFPRLGLWGQGTLVTVSS
VL: AVLTQTPSPVSAAVEGTVTINCQSSQSVDNNRLSWFQQKPGQPPKLLIYDASTLASGVPPRFKGSGSGTQFTLTISDVQCDDAATYYCAGGYSFPSENAFGGGTEVVVK
notes: as for B1
B15: 7C11 rabbit-human chimeric anti-CD40 antibody (antibody, V domains shown)
VH: QSLEESGGRLVTPGGSLTLTCTVSGIDLSTNGMGWVRQGPGKGLEWIGTIRVTAGTDYANWAKGRFTISKTSSTTVDLKMTSLTTEDTATYFCARGHANNDAYVYFNLWGQGTLVTVSS
VL: AFELTQTPASVEAGVGGTVTIKCQASQSIDRYLAWYQQKSGQPPKLLISYTSKLASGVPSRFKGSGSGTEFTLTISDLECADAATYYCQSYFTSDDANSFGGGTEVVVK
notes: as for B1
B16: 8C10 rabbit-human chimeric anti-CD40 antibody (antibody, V domains shown)
VH: QSLAESGGRLVTPGGSLTLTCTVSGIDLSTDGMGWVRQGPGKGLEWIGTIRVTGGTDFATWAKGRFTIAKTSSTTVDLKMTSLTTEDTATYFCARGHANNDAYVYFNLWGQGTLVTVSS
VL: AFELTQTPASVEAGVGGTVTIKCQASQSIDRYLAWYQQKPGQPPKLLMAAAANLASGVPSRFKGSRSGTEFTLTISDLECADGATYYCQSYFTSDDGNTFGGGTEVVVK
notes: as for B1
B17: 7G6 rabbit-human chimeric anti-CD40 antibody (antibody, V domains shown)
VH: QSLEESGGRLVTPGGSLTLTCTVSGIDLSTNGMGWVRQGPGKGLEWIGTIRVTGGTDYATWAKGRFTISKTSSTTVDLKMTSPTTEDTATYFCARGHANNDAYVYFNLWGQGTLVTVSS
VL: AFELTQTPASVEAGVGGTVTIKCQASQSIDRYLAWYQQKPGQPPKLLISYTSTLTSGVPSRFKGSGSGTEFTLTISDLECADAATYYCQSYFTSDDANTFGGGTEVVVK
notes: as for B1
B18: 2C10 rabbit-human chimeric anti-CD40 antibody (antibody, V domains shown)
VH: QSLEESGGRLVTPGTPLTLTCTASGFTMNRYRMSWVRQAPGKGLEWIGTINNDAGASYASWVNGRFTISKTSSTTVDLKITGPTTEDTATYFCARAGDNIYVDLYNLWGPGTLVTVSS
VL: DVVMTQTPASVSGAVGGTVTIKCQASENIFSYLAWYQQKPGQPPKLLFYGASNLASGVPSRFSGSRSGTEFTLTISDLECADAATYYCQFTNYGSSDIRSPFGGGTEVVVK
notes: as for B1
B19: 5D10 rabbit-human chimeric anti-CD40 antibody (antibody, V domains shown)
VH: QSVEESGGRLVTPGTPLTLTCTVSGFSFYDHTMIWVRQAPGKGLEYIGFINIGGRAYYASWAKGRFTISRTSTTVDLEMTSLTTEDTATYFCARGDTHGYSYPEIWGPGTLVTVSS
VL: DIVMTQTPASVEAGVGGTVTIKCQASQTIYSYLSWYQQKPGQPPKLLIYRASTLASGVPSRFRGSGSGTEFTLTISDLECADAAAYYCQNYYDSTSSNAFGKGTEVVVK
notes: as for B1
B20: 2E11 rabbit-human chimeric anti-CD40 antibody (antibody, V domains shown)
VH: QSLEESGGRLVTPGTPLTLTCTVSGIDLSRYAMGWVRQAPGKGLEFIGIITSNSGDTYYATWAKGRFTISKTSTTVDLKITSPTTEDTATYFCVRGYIGAPNLWGPGTLVTVSS
VL: AVLTQTPSPVSAAVGGTVSISCQSSKTVYYNNYLSWFQQKPGQPPKELIYYASTLSSGVPSRFKGSGSGTQFTLTISDVQCDDAATYYCAGGYNSDSDNTFGGGTEVVVK
notes: as for B6
B21: 8C6 rabbit-human chimeric anti-CD40 antibody (antibody, V domains shown)
VH: QSVEESGGRLVTPGTPLTLTCTASGFTITSYYIIWVRQAPGEGLEYIGIIDTGGSADYASWAKGRFTISRTSTTVDLKMTSLTTEDTATYFCARADVGSVGSIWGPGTLVTVSS
VL: DVAMTQTPSSVSAAVGGTVTIECQASQNIYTNLAWYQQKPGQRPKLLIYYASTLASGVPSRFSGSGSGTEFSLTISDLECADAATYYCQCTYIKWRHVCGFGGGTEVVVK
notes: as for B1

For this assay, the target named is T1, purified recombinant human CD40 protein (human, UniProt P25942 21-193).
T1 construct: also called recombinant CD40
T1 sequence (P25942 21-193 limits assumed): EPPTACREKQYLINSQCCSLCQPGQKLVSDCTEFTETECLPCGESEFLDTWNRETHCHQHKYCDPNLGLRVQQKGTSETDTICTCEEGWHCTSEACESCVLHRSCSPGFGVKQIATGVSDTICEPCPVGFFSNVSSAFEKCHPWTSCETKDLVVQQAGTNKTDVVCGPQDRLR
Briefly: ELISA on coated recombinant human CD40; chimeric antibody supernatant. As to the method:
ELISA plate was coated with purified recombinant CD40 protein in coating buffer at lug/ml overnight. After washed for 3 times, the plate was blocked with 1% BSA, and then cell culture supernatants containing rabbit-human chimeric CD40 antibodies were added to the plate. For detection of the antibody binding to CD40 protein, goat anti-human Fc polyclonal antibody conjugated to alkaline phosphatase was used.
Consider B1, for which the OD405 stood at 1.96 OD405.

Regarding B2, the OD405 turned out to be 1.99 OD405.

In the case of B3, the OD405 came to 1.46 OD405.

As for B4, the OD405 turned out to be 1.77 OD405.

Consider B5, for which the OD405 was found to be 1.51 OD405.

For the molecule B6, the OD405 is 1.83 OD405.

As for B7, the OD405 stood at 1.82 OD405.

B8: the OD405 was found to be 1.57 OD405.

Take B9: the OD405 amounted to 1.97 OD405.

For the molecule B10, the OD405 came out at 1.64 OD405.

As for B11, the OD405 amounted to 1.69 OD405.

B12: the OD405 is 2 OD405.

With B13, the OD405 stood at 1.84 OD405.

As to B14, the OD405 is 1.82 OD405.

B15: the OD405 is 1.8 OD405.

As for B16, the OD405 was determined as 2.09 OD405.

Consider B17, for which the OD405 came to 1.82 OD405.

On to B18, for which the OD405 is 2.14 OD405.

Consider B19, for which the OD405 is 0.98 OD405.

For B20, the OD405 is 1.79 OD405.

Take B21: the OD405 came out at 1.97 OD405.
